# T1: Mouse IL-5Rα-Fc (R&D Systems Inc.) (mouse, UniProt P21183 18-339)
# T1 construct: Bought reagent; not shown: Fc part
# T1 sequence (looked up): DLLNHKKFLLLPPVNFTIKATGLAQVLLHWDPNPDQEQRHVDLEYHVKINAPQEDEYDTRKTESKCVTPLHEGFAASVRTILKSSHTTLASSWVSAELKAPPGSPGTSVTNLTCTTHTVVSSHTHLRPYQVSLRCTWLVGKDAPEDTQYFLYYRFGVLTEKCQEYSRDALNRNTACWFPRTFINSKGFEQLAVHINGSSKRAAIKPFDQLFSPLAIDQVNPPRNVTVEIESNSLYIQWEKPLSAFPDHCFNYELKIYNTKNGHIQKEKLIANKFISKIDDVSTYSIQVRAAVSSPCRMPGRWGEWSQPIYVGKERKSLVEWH
# T2: mouse IL-5Rα expressed on cells (Ba/F3 cells stably expressing mouse IL-5Rα); Expi293F cells transiently … (mouse, UniProt P21183 18-415)
# T2 construct: whole, on cells; also called IL-5Rα-expressing Ba/F3 cells; IL5Ra-expressing Ba/F3 cells
# T2 sequence (looked up): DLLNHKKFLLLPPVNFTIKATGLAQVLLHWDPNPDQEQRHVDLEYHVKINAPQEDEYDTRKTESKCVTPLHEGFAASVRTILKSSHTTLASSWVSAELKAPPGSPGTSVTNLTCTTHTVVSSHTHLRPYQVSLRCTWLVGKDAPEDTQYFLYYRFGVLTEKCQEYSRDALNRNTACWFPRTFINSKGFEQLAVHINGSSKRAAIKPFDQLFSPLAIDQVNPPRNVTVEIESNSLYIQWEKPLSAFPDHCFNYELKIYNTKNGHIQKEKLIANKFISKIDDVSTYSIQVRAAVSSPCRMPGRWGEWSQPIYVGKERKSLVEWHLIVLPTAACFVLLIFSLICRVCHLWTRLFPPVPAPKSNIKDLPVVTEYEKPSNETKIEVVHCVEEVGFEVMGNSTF
# B1: rat/mouse chimera type 1B12 antibody (antibody, V domains shown)
# VH: VQLVESDGGLVQPGRSLKLSCAASGFTFSDFYMAWVRQAPTKGLEWVATISYDGSSAYYRDSVKGRFTISRDNAKSTLYLQMDSLSSEDTATYYCARHDGYYPFDYWGQGVMVTVSS
# VL: DIRMTQSPASLSASLGETVNIECLASEDIYSDLAWYQQKPGKSPQLLIYDANSLQNGVPSRFSGSGSGTQYSLKINSLQSEDVATYFCQQYNNYWTFGGGTKLELK
# notes: also called cm1B12 antibody; cm1B12
# How the values were obtained:
# [1] = molecular target: T1, Mouse IL-5Rα-Fc (R&D Systems Inc.); assay: SPR, Biacore T200; mouse IL-5Rα-Fc captured on anti-human IgG (Fc); cm1B12 as analyte; bivalent analyte model
# Experimental: The binding activity of the cm1B12 antibody to mouse IL-5Rα-Fc was analyzed using Biacore T200. Anti-Human IgG (Fc) was immobilized at about 9000 RU onto CM5 sensor chip (GE Healthcare) using Human Antibody Capture Kit (GE Healthcare) according to the attached instruction. Mouse IL-5Rα-Fc (R&D Systems Inc.) dissolved at 1 μg/mL in HBS-EP(+) was captured as a ligand at a flow rate of 30 μL/min for 20 seconds. Then, the cm1B12 antibody serially diluted into concentrations of 1000.00, 333.33, 111.11, 37.04, 12.35, and 4.12 ng/mL was added thereto as an analyte by the multicycle method.
# The operation was performed under conditions involving a flow rate of 30 μL/min, and a contact time and a dissociation time of 120 seconds and 600 seconds, respectively. The analysis was carried out using Biacore T200 Evaluation software in the Surface bound and Bivalent Analyte mode.
# [2] = molecular target: T2, mouse IL-5Rα expressed on cells (Ba/F3 …); assay: flow cytometry on mouse IL-5Rα-expressing Ba/F3 cells, detected with Alexa Fluor 647 goat anti-mouse IgG (H+L), geometric mean fluorescence; parental Ba/F3 cells as negative control
# Experimental: Ba/F3 cells or IL-5Rα-expressing Ba/F3 cells were suspended at a cell density of 1×10⁶ cells/mL in FACS buffer 1. The cell suspension was inoculated at 100 μL/well ([…]) to a 96-well U-form plate. The cm1B12 antibody was diluted into final concentrations of 0.0003, 0.001, 0.003, 0.01, 0.03, 0.1, 0.3, 1, 3, and 10 μg/mL with FACS buffer 1, added at 100 μL/well, and reacted for 1 hour on ice. After washing with FACS buffer 1, Alexa Fluor® 647 Goat anti-mouse IgG (H+L) (Life Technologies Corp.) diluted into 5 μg/mL with FACS buffer 1 was added at 100 μL/well and reacted for 1 hour on ice. After washing with FACS buffer 1, the fluorescence intensity (geometric mean) was measured using a flow cytometer Canto II (Becton, Dickinson and Company).
binder,measurement,setting,value
B1,Kd,[1],31.7 pM
same,koff,[1],0.000126 s⁻¹
same,kon,[1],4.1e+06 M⁻¹ s⁻¹
same,EC50 (read off the curve),[2],~0.05 µg/mL
